For this series, the target named is T1, PfAgo binding-pocket mutant (UniProt Q8U3D2).
T1 sequence: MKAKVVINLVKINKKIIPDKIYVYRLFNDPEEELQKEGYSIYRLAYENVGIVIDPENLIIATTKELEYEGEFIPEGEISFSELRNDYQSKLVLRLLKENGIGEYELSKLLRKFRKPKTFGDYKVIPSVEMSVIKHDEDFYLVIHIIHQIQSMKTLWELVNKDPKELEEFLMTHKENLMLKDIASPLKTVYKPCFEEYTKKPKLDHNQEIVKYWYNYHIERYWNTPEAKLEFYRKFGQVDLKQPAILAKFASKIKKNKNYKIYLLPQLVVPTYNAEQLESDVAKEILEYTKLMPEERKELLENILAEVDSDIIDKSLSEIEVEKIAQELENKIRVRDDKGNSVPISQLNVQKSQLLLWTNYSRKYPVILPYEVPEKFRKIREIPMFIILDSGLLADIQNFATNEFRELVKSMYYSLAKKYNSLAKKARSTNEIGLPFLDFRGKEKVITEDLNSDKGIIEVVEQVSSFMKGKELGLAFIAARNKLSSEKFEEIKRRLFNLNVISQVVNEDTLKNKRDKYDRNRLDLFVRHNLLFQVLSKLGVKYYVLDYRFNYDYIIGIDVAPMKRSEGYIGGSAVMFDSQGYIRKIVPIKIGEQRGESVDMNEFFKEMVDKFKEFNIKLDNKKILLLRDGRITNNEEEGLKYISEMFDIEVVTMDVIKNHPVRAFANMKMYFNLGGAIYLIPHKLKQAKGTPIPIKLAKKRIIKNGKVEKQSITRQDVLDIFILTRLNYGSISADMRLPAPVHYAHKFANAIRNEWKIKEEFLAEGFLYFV
As to the kind of experiment: fluorescence polarization. Background: Fluorescence polarisation rises when a labelled molecule tumbles more slowly, as on binding a larger partner.

Consider “ATATACTATACAACCTACTACCTCGTATAAATTTTTAAATAAATA [45nt DNA target]”, for which the binding signal (fold affinity gain) turned out to be 3.

As to TGACGTAGTAGGTTGT [guide_m4], for the setting “5' phosphate”, the binding signal (fold affinity gain (up to)) is 2.

These data come from doi:10.1101/2023.06.28.546964.
